The values below come from patent CN115433280A (SUZHOU DIMA BIOTECHNOLOGY CO LTD, dated 2022).

Assay [1] concerns the target CD22 FC融合标签蛋白 (UniProt P20273). Nature of the assay: indirect ELISA, B cell clone supernatant on coated CD22 protein (1 μg/ml). In general terms: ELISA stands for enzyme-linked immunosorbent assay.
Assay [2] addresses CD22 FC融合标签蛋白 (UniProt P20273). Nature of the assay: ELISA, purified antibody at dilution 25K on coated CD22 protein (1 μg/ml).
For assay [3], the target named is CD22 FC融合标签蛋白 (UniProt P20273). Nature of the assay: ELISA, purified antibody at dilution 15625k on coated CD22 protein (1 μg/ml).
The target of assay [4] is CD22 FC融合标签蛋白 (UniProt P20273). Nature of the assay: ELISA, purified antibody at dilution 625K on coated CD22 protein (1 μg/ml).
Assay [5] addresses CD22 FC融合标签蛋白 (UniProt P20273). Nature of the assay: ELISA, purified antibody at dilution 3125k on coated CD22 protein (1 μg/ml).
For a further assay, the target named is T1, CD22 on Raji细胞 (UniProt P20273 20-847, limits assumed).
T1 construct: whole, on cells; also called 天然细胞表面CD22蛋白
T1 sequence (looked up): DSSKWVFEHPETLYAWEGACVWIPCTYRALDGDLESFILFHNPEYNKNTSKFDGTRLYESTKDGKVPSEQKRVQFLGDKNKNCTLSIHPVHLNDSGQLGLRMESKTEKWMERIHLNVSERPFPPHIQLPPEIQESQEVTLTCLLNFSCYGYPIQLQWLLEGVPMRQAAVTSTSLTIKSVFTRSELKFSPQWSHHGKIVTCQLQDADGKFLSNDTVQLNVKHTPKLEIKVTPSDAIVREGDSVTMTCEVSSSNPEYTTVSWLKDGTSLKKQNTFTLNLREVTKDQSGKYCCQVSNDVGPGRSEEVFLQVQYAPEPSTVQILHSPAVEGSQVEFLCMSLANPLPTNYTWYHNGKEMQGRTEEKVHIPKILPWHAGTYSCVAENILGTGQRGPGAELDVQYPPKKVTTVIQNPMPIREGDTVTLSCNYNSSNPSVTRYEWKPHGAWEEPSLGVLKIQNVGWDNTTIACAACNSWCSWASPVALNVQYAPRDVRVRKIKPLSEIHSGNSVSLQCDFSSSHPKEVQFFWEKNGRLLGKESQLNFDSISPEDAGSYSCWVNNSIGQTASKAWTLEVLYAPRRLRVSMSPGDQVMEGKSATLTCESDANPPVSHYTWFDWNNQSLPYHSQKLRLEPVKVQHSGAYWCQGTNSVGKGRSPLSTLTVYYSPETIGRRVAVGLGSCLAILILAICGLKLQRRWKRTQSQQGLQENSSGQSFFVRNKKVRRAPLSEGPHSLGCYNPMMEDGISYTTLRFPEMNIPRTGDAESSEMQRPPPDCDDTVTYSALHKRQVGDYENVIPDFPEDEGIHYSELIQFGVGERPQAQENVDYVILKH
Nature of the assay: flow cytometry on Raji cells, antibody at several concentrations.

Assay [6] has as its target CD22 FC融合标签蛋白 (UniProt P20273). Nature of the assay: ELISA, purified antibody at dilution 125K on coated CD22 protein (1 μg/ml).
Assay [7] has as its target CD22 FC融合标签蛋白 (UniProt P20273). Nature of the assay: ELISA, purified antibody at dilution 1K on coated CD22 protein (1 μg/ml).

B1: 命名为8B5的兔重组单克隆抗体 (antibody, V domains shown)
VH: QEQLKESGGGLVTPGGSLTLTCTVSGIDLSSYAMGWVRQAPGKGLEYIGIVTYAGSAYYASWARGRFTISKTSTTVDLKITSPTTEDTATYFCARGVDNFYTLPDAFDPWGPGTLVTVS
VL: AYDMTQTPASVSAAVGGTVTINCQASQSISRFLSWYQQKPGQRPKLLIYRASTLASGVSSRFEGSGSGTQFTLTISGVECADAATYYCQQGDTYINVDNPFGGGTEVVVK
notes: Rabbit recombinant monoclonal antibody expressed in 293 cells
In the assay with CD22 FC融合标签蛋白 [1], B1 displayed an OD450 of 1.93. In the assay with CD22 FC融合标签蛋白 [2], this molecule displayed an ELISA reading (OD) at dilution 25K of 3.52. In the assay with CD22 FC融合标签蛋白 [3], this molecule came in with an ELISA reading (OD) at dilution 15625k of 0.146. Moreover, the ELISA reading (OD) at dilution 625K with CD22 FC融合标签蛋白 [4] stood at 0.528. For the same molecule, the ELISA reading (OD) at dilution 3125k with CD22 FC融合标签蛋白 [5] is 0.203. Besides, in the assay with CD22 on Raji细胞, the binding result is “binds”. In the assay with CD22 FC融合标签蛋白 [6], this molecule showed an ELISA reading (OD) at dilution 125K of 1.92.

B2: 命名为10F9的兔重组单克隆抗体 (antibody, V domains shown)
VH: QSVEESGGRLVTPGTPLTLTCTVSGFSLNTDAMIWVRQAPGKGLEYIGIIGSSGSAFFASWAKGRFTISKTSTTVDLTIISPTTEDTATYFCARFTGYGGYGRGGMDPWGPGTLVTVSS
VL: AQVLTQTPSSVSAAVGGTVTINCQSSESVHNNNWLSWYQQKPGQPPKLLIYKASTLASGVPSRFSGSGSGTQFTLTISGVQCDDAATYYCQATYNSGGWYVAFGGGTEVVVK
notes: as for B1
Molecule B2 showed an OD450 with CD22 FC融合标签蛋白 [1] of 1.86. In addition, the ELISA reading (OD) at dilution 25K with CD22 FC融合标签蛋白 [2] was determined as 3.37. For the same molecule, in the assay with CD22 FC融合标签蛋白 [3], the ELISA reading (OD) at dilution 15625k was 0.125. In the assay with CD22 FC融合标签蛋白 [4], the ELISA reading (OD) at dilution 625K turned out to be 0.405. Moreover, the ELISA reading (OD) at dilution 3125k in the assay with CD22 FC融合标签蛋白 [5] was determined as 0.171. Moreover, in the assay with CD22 on Raji细胞, the binding result is “binds”. In the assay with CD22 FC融合标签蛋白 [6], the ELISA reading (OD) at dilution 125K worked out at 1.39.

B3: 命名为9A3的兔重组单克隆抗体 (antibody, V domains shown)
V domain 1: QSVEESGGRLVTPGTPLTLTCTVSGIDLSSYWMNWVRQAPGKGLEWIGIIWSDDNTYYANWAKGRFTISKTSSTTVDLTITSPTTEDTATYFCARGYVGDIWGPGTLITVS
V domain 2: ALVMTQTPSSVDVAVGGTVTIRCQASQNIYSGLAWYQQKPGQPPKLLIYGASNLASGVSSRFKGSGSGTQFTLTISGVECADAATYYCQQTYTSDNVDNPFGGGTEVVVE
notes: as for B1
In the assay with CD22 FC融合标签蛋白 [1], B3 had an OD450 of 2.12. In addition, in the assay with CD22 FC融合标签蛋白 [7], the ELISA reading (OD) at dilution 1K was determined as 3.95. For the same molecule, the ELISA reading (OD) at dilution 25K in the assay with CD22 FC融合标签蛋白 [2] was determined as 3.1. In the assay with CD22 FC融合标签蛋白 [3], this molecule returned an ELISA reading (OD) at dilution 15625k of 0.12. In the assay with CD22 FC融合标签蛋白 [4], this molecule returned an ELISA reading (OD) at dilution 625K of 0.382. Also, the ELISA reading (OD) at dilution 3125k with CD22 FC融合标签蛋白 [5] was 0.18. For the same molecule, in the assay with CD22 on Raji细胞, the binding result was “binds”. In addition, in the assay with CD22 FC融合标签蛋白 [6], the ELISA reading (OD) at dilution 125K worked out at 1.33.
